Experimental data as given in US20200079848A1 (Five Prime, published 2020).
“And” between values parts separate entries of the source, which are not always exact repeats. Equal values may be shown once. Each block holds one binder with its values, some of them ahead of it.

How the values were obtained:
[1] = target: T1, cyno ILT4 9152 extracellular domain, including His-Avi Tag (cynomolgus monkey); experiment: SPR ProteOn XPR36, 37 C; antibody amine-coupled to GLC chip, ILT4 ECD-His-Avi as analyte
T1 sequence (chain, as listed by the source limits assumed): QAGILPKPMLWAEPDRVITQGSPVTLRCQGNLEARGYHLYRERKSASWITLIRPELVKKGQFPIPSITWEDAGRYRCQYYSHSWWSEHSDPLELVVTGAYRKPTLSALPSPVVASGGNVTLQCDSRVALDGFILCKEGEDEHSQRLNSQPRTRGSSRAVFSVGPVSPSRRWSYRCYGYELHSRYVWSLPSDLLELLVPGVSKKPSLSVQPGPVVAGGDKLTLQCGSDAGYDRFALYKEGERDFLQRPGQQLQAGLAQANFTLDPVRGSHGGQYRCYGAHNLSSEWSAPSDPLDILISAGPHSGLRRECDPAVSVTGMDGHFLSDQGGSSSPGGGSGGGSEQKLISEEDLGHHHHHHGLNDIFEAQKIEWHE
Description: (§1) The antibody was amine-coupled to a GLC sensor chip in a Proteon XPR36 instrument (BioRad). […] All data were double-referenced, exported, and analyzed with BIAevaluation Software 4.1.1 using the kinetic titration model described by Karlsson et al (Karlsson et al. (2005) Analytical Biochem. 349:136). The running buffer consisted of 10 mM HEPES pH 7.4, 150 mM NaCl and 0.05% Tween-20. The assay temperature was 37° C.

hILT4-His-Avi tag [2] = target: T2, hILT4-His-Avi tag (human, UniProt Q8N423 22-459); experiment: SPR Biacore T200, 37 C; antibody captured on protein A/G chip, monomeric hILT4 as analyte; kinetic fit
T2 construct: also called monomeric human ILT4; extracellular region of hILT4 linked to a His-Avi tag
T2 sequence (Q8N423 other isoform, or with tags, fused parts or gaps): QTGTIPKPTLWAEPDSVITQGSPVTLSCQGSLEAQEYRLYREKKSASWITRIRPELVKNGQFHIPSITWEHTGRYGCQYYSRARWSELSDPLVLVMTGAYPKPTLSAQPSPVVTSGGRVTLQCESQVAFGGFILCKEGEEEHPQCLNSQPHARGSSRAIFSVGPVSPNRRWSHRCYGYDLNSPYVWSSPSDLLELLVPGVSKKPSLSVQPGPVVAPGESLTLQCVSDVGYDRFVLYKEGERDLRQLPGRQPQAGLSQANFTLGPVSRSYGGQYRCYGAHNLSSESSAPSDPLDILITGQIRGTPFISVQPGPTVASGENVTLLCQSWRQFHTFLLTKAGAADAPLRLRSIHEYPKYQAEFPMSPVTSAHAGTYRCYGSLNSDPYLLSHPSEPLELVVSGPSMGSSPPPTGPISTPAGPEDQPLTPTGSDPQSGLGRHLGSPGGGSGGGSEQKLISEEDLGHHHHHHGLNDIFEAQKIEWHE
Description: The binding kinetics of the parent and germline reversion mutant anti-hILT4 antibodies (in the context of IgG1.3) were measured via Surface Plasmon Resonance (SPR) using a Biacore® T200 instrument. The assay temperature was 37° C. and the running buffer was PBS pH 7.4 supplemented with 0.05% Tween-20. Allanti-hILT4 antibodies were captured on a CM4 chip with pre-immobilized protein A/G (Pierce Thermo Scientific catalog number 21186). […] Monomeric human ILT4 was injected as analyte. […] The hILT4 used in this experiment, comprising the extracellular region of hILT4 linked to a His-Avi tag, consists of the following amino acid sequence: […]

hILT4-His-Avi tag [3] = target: T2, hILT4-His-Avi tag; experiment: SPR ProteOn XPR36, 37 C; antibody amine-coupled to GLC chip, ILT4 ECD-His-Avi as analyte; kinetic titration
Description: as §1

[4] = target: T1, cyno ILT4 9152 extracellular domain, …; experiment: as above
Description: as §1

hILT4-His-Avi tag [5] = target: T2, hILT4-His-Avi tag; experiment: SPR Biacore T200, 37 C; antibody captured by anti-human Fc on CM4 chip, hILT4-His-Avi as analyte; 1:1 Langmuir fit
Description: The running buffer was 10 mM HEPES pH 7.4 supplemented with 0.05% Tween-20 and 1 g/L BSA. All anti-ILT4 antibodies were captured on a CM4 chip with pre-immobilized anti-human Fc capture antibody from Southern Biotech (catalog number 2081-01). […] All data were double-referenced and fitted to a 1:1 Langmuir model with mass transport using Biacore T200 Evaluation Software version 3.1.

[6] = target: T3, human ILT4 (hILT4) expressed on cells (human, UniProt Q8N423 22-597); experiment: flow cytometry on hILT4-transfected CHO cells, PE anti-human IgG secondary, GMFI (PE); EC50 from the table below the graph; the table has no unit, the concentration axis is in ug/mL
T3 construct: hILT4 on transfected CHO or 293T cells, or native on human monocytes and macrophages; also called LILRB2
T3 sequence (Q8N423 other isoform, or with tags, fused parts or gaps): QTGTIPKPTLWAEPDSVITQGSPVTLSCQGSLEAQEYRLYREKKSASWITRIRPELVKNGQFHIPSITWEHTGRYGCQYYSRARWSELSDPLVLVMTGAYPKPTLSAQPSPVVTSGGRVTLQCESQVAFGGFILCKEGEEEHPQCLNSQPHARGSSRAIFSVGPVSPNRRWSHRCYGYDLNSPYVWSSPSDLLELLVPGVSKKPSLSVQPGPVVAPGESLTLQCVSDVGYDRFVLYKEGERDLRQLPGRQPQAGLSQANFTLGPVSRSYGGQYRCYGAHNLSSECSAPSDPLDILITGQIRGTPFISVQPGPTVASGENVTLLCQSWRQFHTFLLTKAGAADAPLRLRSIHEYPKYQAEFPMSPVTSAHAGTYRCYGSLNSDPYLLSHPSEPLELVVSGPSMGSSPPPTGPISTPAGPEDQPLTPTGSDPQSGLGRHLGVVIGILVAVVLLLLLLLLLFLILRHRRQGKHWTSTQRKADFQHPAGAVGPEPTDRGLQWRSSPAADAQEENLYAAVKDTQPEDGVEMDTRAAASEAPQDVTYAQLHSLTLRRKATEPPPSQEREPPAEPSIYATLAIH

[7] = target: T3, human ILT4 (hILT4) expressed on cells; experiment: antibody titration flow cytometry binding assay on transfected cells, nonlinear regression
human LILRA5 [8] = target: T4, human LILRA5 (human, UniProt A6NI73 42-299); experiment: as above
T4 construct: whole, on cells; also called hLILRA5
T4 sequence (A6NI73 42-299): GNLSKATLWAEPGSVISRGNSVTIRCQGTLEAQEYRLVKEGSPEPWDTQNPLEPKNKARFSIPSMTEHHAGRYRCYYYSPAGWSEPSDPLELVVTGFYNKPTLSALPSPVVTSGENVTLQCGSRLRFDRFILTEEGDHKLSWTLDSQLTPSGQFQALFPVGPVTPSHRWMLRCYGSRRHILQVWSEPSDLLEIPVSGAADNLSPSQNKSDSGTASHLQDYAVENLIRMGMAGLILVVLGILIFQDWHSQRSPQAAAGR

human LILRA1 [9] = target: T5, human LILRA1 (human, UniProt O75019 17-489); experiment: flow cytometry, 293T transfectants, antibody 20 µg/ml; stacked histograms, control: parental cells
T5 construct: whole, on cells; also called hLILRA1; LIRA1
T5 sequence (O75019 17-489): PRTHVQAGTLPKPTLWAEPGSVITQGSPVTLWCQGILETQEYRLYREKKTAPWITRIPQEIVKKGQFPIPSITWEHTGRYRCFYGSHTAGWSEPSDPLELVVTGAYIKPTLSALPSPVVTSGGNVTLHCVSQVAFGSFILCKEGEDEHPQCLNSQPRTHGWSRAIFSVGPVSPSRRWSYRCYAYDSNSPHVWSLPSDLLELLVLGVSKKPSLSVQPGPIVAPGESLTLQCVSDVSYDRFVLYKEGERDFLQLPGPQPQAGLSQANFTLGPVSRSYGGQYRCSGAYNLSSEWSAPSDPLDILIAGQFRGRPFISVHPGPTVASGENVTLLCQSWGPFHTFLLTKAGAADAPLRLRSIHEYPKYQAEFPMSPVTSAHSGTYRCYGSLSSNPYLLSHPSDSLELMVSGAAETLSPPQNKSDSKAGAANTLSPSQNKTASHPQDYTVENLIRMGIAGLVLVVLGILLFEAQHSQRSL
Description: (§2) Individual ILT family members were overexpressed in 293T cells. Each transfectant was stained with 20 μg/ml of anti-ILT4 antibodies followed by 1 μg/ml of anti-human IgG secondary mAb. Binding of the antibodies to each transfectant was measured by flow cytometry.

human LILRA2 = target: T6, human LILRA2 (human, UniProt Q8N149 24-483); experiment: as above
T6 construct: whole, on cells; also called hLILRA2
T6 sequence (Q8N149 24-483): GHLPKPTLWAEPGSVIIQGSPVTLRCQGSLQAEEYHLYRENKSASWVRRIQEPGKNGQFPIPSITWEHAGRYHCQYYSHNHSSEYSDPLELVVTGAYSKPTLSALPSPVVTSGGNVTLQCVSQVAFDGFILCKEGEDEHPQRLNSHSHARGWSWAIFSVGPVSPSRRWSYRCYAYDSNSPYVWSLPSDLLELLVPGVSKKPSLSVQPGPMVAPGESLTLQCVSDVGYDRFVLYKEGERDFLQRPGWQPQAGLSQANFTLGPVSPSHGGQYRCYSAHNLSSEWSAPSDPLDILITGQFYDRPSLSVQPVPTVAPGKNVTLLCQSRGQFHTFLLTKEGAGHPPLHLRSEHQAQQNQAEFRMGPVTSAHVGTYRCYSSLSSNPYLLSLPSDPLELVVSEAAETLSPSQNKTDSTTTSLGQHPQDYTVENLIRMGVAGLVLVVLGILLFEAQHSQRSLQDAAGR
Description: as §2

human LILRA3 [10] = target: T7, human LILRA3 (human, UniProt Q8N6C8 24-439); experiment: as above
T7 construct: whole, on cells; also called hLILRA3; LIRA3
T7 sequence (Q8N6C8 24-439): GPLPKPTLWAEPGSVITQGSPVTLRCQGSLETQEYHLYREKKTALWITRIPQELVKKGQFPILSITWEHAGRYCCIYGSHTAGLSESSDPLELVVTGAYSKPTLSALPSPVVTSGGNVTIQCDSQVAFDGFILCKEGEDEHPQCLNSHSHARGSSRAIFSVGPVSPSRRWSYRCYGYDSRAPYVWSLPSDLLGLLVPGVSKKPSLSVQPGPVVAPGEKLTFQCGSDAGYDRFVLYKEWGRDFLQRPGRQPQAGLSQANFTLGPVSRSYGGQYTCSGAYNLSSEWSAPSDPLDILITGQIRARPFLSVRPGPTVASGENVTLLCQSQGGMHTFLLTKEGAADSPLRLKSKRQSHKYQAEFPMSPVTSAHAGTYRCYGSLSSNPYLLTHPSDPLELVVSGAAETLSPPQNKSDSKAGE
Description: as §2

human LILRA4 = target: T8, human LILRA4 (human, UniProt P59901 24-499); experiment: as above
T8 construct: whole, on cells; also called hLILRA4
Description: as §2

human LILRA6 = target: T9, human LILRA6 (human, UniProt Q6PI73 24-481); experiment: as above
T9 construct: whole, on cells; also called hLILRA6
T9 sequence (Q6PI73 24-481): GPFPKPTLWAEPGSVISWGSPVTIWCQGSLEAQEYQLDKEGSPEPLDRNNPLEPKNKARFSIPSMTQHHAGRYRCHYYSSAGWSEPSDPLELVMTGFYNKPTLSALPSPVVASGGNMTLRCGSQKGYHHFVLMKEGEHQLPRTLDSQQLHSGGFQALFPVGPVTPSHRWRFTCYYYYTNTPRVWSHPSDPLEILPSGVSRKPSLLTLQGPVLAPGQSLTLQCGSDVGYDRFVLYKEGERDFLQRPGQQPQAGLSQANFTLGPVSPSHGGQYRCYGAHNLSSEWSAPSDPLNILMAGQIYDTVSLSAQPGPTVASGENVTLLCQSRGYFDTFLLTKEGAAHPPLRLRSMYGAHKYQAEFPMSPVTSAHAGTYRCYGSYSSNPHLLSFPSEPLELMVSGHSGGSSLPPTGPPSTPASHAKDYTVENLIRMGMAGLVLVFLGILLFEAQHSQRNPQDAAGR
Description: as §2

human ILT2 = target: T10, human ILT2 (human, UniProt Q8NHL6 24-650); experiment: as above
T10 construct: whole, on cells; also called hILT2
T10 sequence (Q8NHL6 24-650): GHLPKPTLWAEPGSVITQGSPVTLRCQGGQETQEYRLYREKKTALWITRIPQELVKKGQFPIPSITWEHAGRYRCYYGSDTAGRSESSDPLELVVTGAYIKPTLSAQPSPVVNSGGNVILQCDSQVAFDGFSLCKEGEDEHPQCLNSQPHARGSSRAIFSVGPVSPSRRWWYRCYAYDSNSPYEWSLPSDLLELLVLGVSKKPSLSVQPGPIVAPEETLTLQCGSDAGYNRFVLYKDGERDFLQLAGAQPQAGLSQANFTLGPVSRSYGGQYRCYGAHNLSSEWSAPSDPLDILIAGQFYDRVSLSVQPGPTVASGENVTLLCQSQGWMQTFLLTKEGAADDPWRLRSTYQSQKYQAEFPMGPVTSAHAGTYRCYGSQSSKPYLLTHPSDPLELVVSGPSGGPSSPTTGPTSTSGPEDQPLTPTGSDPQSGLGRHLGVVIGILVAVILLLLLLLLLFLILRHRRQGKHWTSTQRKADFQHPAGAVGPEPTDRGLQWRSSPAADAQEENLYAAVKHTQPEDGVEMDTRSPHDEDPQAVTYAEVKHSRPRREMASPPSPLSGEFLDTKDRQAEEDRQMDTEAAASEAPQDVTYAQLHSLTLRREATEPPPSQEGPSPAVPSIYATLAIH
Description: as §2

human ILT3 = target: T11, human ILT3 (human, UniProt Q8NHJ6 22-448); experiment: as above
T11 construct: whole, on cells; also called hILT3
Description: as §2

human ILT5 = target: T12, human ILT5 (human, UniProt O75022 24-631); experiment: as above
T12 construct: whole, on cells; also called hILT5; LILRB3
Description: as §2

human LIR8 = target: T13, human LIR8 (human, UniProt O75023 24-590); experiment: as above
T13 construct: whole, on cells; also called hLIR8
Description: as §2

[11] = target: T3, human ILT4 (hILT4) expressed on cells; experiment: flow cytometry on human monocytes of a healthy donor, directly labelled antibody, GMFI; EC50 from the table below the graph; the table has no unit, the concentration axis is in ug/mL
Text: In FIG. 18B, monocytes selected from a normal healthy donor's peripheral blood were stained with individual anti-ILT4 antibodies conjugated to […].

human LILRA1 [12] = target: T5, human LILRA1; experiment: antibody titration flow cytometry binding assay on transfected cells, nonlinear regression
human LILRA3 [13] = target: T7, human LILRA3; experiment: as above
human LILRA5 [14] = target: T4, human LILRA5; experiment: flow cytometry, 293T transfectants, antibody 20 µg/ml; stacked histograms, control: parental cells
Description: as §2

rhILT4-Fc [15] = target: T14, rhILT4-Fc (human, UniProt Q8N423-1 22-461); experiment: flow cytometry blocking assay: antibody titrated (12 points) with rhILT4-Fc fixed at 30 µg/ml; rhILT4-Fc bound to HLA-A overexpressing CHO cells read as % Positive; blocked ligand: HLA-A; the IC50 table has no unit, the concentration axis is in ug/mL
T14 construct: also called rhILT4-Fc fusion protein with a murine Fc tail; not shown: murine Fc tail
T14 sequence (Q8N423 other isoform, or with tags, fused parts or gaps): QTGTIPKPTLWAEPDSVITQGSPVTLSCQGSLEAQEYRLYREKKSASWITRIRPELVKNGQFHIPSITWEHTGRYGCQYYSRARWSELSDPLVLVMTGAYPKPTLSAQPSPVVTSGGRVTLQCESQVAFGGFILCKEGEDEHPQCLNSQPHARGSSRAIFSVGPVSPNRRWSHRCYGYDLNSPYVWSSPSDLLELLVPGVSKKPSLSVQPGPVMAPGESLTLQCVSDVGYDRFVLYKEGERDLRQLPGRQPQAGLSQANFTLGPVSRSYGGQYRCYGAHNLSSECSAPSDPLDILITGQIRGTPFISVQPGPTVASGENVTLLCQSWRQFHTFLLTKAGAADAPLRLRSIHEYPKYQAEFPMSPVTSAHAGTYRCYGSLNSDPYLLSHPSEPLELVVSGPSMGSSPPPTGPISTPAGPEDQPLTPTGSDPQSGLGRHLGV

rhILT4-Fc [16] = target: T14, rhILT4-Fc; experiment: flow cytometry blocking assay: antibody titrated (12 points) with rhILT4-Fc fixed at 30 µg/ml; rhILT4-Fc bound to HLA-B overexpressing CHO cells read as % Positive; blocked ligand: HLA-B; the IC50 table has no unit, the concentration axis is in ug/mL
[17] = target: T3, human ILT4 (hILT4) expressed on cells; experiment: flow cytometry cross-blocking on hILT4 CHO cells: unlabelled antibody titrated from 40 µg/mL, then PE-2H2.IgG1.1f at 1.5 µg/mL; competitor: PE-2H2; GMFI (PE) falls from about 330 to about 25; the table calls the value EC50 and has no unit, the concentration axis is in µg/mL
Text: (§3) After washing, the samples were acquired on a FACSCanto™ cytometer (BD Bioscience, San Jose) and analyzed with Flowjo™ software (Tree Star, Inc, Ashland, Oreg.).

[18] = target: T3, human ILT4 (hILT4) expressed on cells; experiment: flow cytometry cross-blocking on hILT4 CHO cells: unlabelled antibody titrated from 40 µg/mL, then PE-21D9.IgG1.1f at 1.5 µg/mL; competitor: PE-21D9; the 21A5 curve does NOT fall: GMFI (PE) goes from about 615 up to about 665, no blocking of PE-21D9; the printed EC50 belongs to this small rise; table without unit, axis in µg/mL
Text: as §3

fold weaker affinity than for human ILT4 [1]: ~12 fold
Kd (hILT4-His-Avi tag [2]): 0.31 nM and 0.32 nM and 0.37 nM
koff (hILT4-His-Avi tag [2]): 0.001 s⁻¹ and 0.0011 s⁻¹
kon (hILT4-His-Avi tag [2]): 3.3e+06 M⁻¹ s⁻¹ and 3.2e+06 M⁻¹ s⁻¹ and 3e+06 M⁻¹ s⁻¹
Kd (hILT4-His-Avi tag [3]): 0.32 nM
koff (hILT4-His-Avi tag [3]): 0.00026 s⁻¹
kon (hILT4-His-Avi tag [3]): 820000 M⁻¹ s⁻¹
Kd [4]: 4 nM
koff [4]: 0.0035 s⁻¹
kon [4]: 880000 M⁻¹ s⁻¹
Kd (hILT4-His-Avi tag [5]): 0.5 nM
app. act. (hILT4-His-Avi tag [5]): 70%
koff (hILT4-His-Avi tag [5]): 0.00054 s⁻¹
kon (hILT4-His-Avi tag [5]): 1.1e+06 M⁻¹ s⁻¹
EC50 [6]: 0.0127 µg/mL
B1: 21D9.IgG1.3 (antibody)
heavy: EGQLLESGGDLVQPGGSLRLSCATSGFTFSNYAMNWVRQAPGKGLEWISVISVSGGSTYYADSVKGRFTISRDNSKNTLYLQMNSLRAEDTAVYYCAKDYYYDSGSYYDSFFDYWGQGTLVTVSSASTKGPSVFPLAPSSKSTSGGTAALGCLVKDYFPEPVTVSWNSGALTSGVHTFPAVLQSSGLYSLSSVVTVPSSSLGTQTYICNVNHKPSNTKVDKRVEPKSCDKTHTCPPCPAPEAEGAPSVFLFPPKPKDTLMISRTPEVTCVVVDVSHEDPEVKFNWYVDGVEVHNAKTKPREEQYNSTYRVVSVLTVLHQDWLNGKEYKCKVSNKALPAPIEKTISKAKGQPREPQVYTLPPSREEMTKNQVSLTCLVKGFYPSDIAVEWESNGQPENNYKTTPPVLDSDGSFFLYSKLTVDKSRWQQGNVFSCSVMHEALHNHYTQKSLSLSPG
light: not shown
notes: also called 21D9 WT; ILT4.6.IgG1.3

EC50 [7]: 0.039 µg/mL
EC50 (human LILRA5 [8]): ~313 µg/mL
Kd (hILT4-His-Avi tag [2]): 0.39 nM
app. act. (hILT4-His-Avi tag [2]): 93%
Kd (hILT4-His-Avi tag [3]): 0.33 nM
Kd (hILT4-His-Avi tag [5]): 0.58 nM
app. act. (hILT4-His-Avi tag [5]): 94%
binding result (human LILRA1 [9]): no binding (tested: 20 µg/ml)
binding result (human LILRA2): no binding (tested: 20 µg/ml)
binding result (human LILRA3 [10]): no binding (tested: 20 µg/ml)
binding result (human LILRA4): no binding (tested: 20 µg/ml)
binding result (human LILRA6): no binding (tested: 20 µg/ml)
binding result (human ILT2): no binding (tested: 20 µg/ml)
binding result (human ILT3): no binding (tested: 20 µg/ml)
binding result (human ILT5): no binding (tested: 20 µg/ml)
binding result (human LIR8): no binding (tested: 20 µg/ml)
EC50 [6]: 0.00416 µg/mL
EC50 [11]: 0.0341 µg/mL
B2: 21D9.e.IgG1.3 (antibody, V domains shown)
VH: EVQLLESGGGLVQPGGSLRLSCAASGFTFSNYAMNWVRQAPGKGLEWVSVISVSGGSTYYADSVKGRFTISRDNSKNTLYLQMNSLRAEDTAVYYCAKDYYYDSGSYYDSFFDYWGQGTLVTVSS
VL: not shown
notes: Germline reversion mutant of 21D9 with all four VH reversions; light chain of 21D9; IgG1.3; also called ILT4.8.IgG1.3; ILT4.8

EC50 [7]: 0.091 µg/mL
EC50 (human LILRA1 [12]): 12.5 µg/mL
EC50 (human LILRA3 [13]): 9.18 µg/mL
Kd (hILT4-His-Avi tag [2]): 0.14 nM
app. act. (hILT4-His-Avi tag [2]): 126%
koff (hILT4-His-Avi tag [2]): 0.00017 s⁻¹
kon (hILT4-His-Avi tag [2]): 1.2e+06 M⁻¹ s⁻¹
Kd (hILT4-His-Avi tag [5]): 0.023 nM
app. act. (hILT4-His-Avi tag [5]): 98%
koff (hILT4-His-Avi tag [5]): 1.2e-05 s⁻¹
kon (hILT4-His-Avi tag [5]): 520000 M⁻¹ s⁻¹
binding result (human LILRA2): no binding (tested: 20 µg/ml)
binding result (human LILRA4): no binding (tested: 20 µg/ml)
binding result (human LILRA5 [14]): no binding (tested: 20 µg/ml)
binding result (human LILRA6): no binding (tested: 20 µg/ml)
binding result (human ILT2): no binding (tested: 20 µg/ml)
binding result (human ILT3): no binding (tested: 20 µg/ml)
binding result (human ILT5): no binding (tested: 20 µg/ml)
binding result (human LIR8): no binding (tested: 20 µg/ml)
EC50 [6]: 0.0518 µg/mL
IC50 (rhILT4-Fc [15]): 3.83 µg/mL
IC50 (rhILT4-Fc [16]): 1.61 µg/mL
EC50 [17]: 0.0738 µg/mL
EC50 [18]: 0.0898 µg/mL
B3: 21A5.IgG1.3 (antibody, V domains shown)
VH: QVQLVQSGAEVKKPGASVKVSCKASGYTFTDYYLHWVRQAPGQGLEWMGIFHPSGDITSSAQNFQGRVTMIRDTSTSTVYMELSSLRSEDTAVYYCARGGVLRYLDWSHAFDIWGQGTMVTVSS
VL: EIALTQSPGTLSLSPGERATLSCRASQSVSSSYLAWYQQKPGQAPRLLIYGASSRATGIPDRFSGSGSGTDFTLTISRLEPEDFAVYYCQQYGSTFGGGTKVEIKR
notes: Fully human antibody, IgG1.3, kappa; also called 21A5 WT; 21A5WT
